Measured values: paper PMC9100220, “Fluorescence Lifetime Phasor Analysis of the Decamer–Dimer Equilibrium of Human Peroxiredoxin 1” (International Journal of Molecular Sciences, 2022)

Columns and labels:
[1] = target: the molecule itself; experiment: SEC; Superdex 200 5/150 GL, PBS pH 7.4 with 1 mM DTT, room temperature; high hPrx1 concentrations (e.g. 20 uM): peak at 3.9 min
[2] = target: the molecule itself; experiment: SEC; Superdex 200 5/150 GL, PBS pH 7.4 with 1 mM DTT, room temperature; low hPrx1 concentrations (e.g. 0.5 uM): peak at 5.2 min

B1: human peroxiredoxin 1 (enzyme, UniProt Q06830 1-199, looked up)
chain: MSSGNAKIGHPAPNFKATAVMPDGQFKDISLSDYKGKYVVFFFYPLDFTFVCPTEIIAFSDRAEEFKKLNCQVIGASVDSHFCHLAWVNTPKKQGGLGPMNIPLVSDPKRTIAQDYGVLKADEGISFRGLFIIDDKGILRQITVNDLPVGRSVDETLRLVQAFQFTDKHGEVCPAGWKPGSDTIKPDVQKSKEYFSKQK
notes: human peroxiredoxin 1 (hPrx1), recombinant; The protein is an obligate homodimer; five dimers form a ring-shaped decamer; It was used in the reduced state, with 1 mM DTT in all measurements; also called hPrx1; human Prx1; source: E. coli BL21(DE3), purified from bacterial lysates; reduced with 10 mM DTT before all experiments
- stoichiometry N [1]: 10
- stoichiometry N [2]: 2
